Km, kcat and kcat/Km data for 9 molecules are collected here from patent US20240218346A1, “PHOSPHOKETOLASE VARIANTS AND METHODS OF USE” (Genomatica, Inc., priority 2021, published 2024).

Residue numbers refer to the chain shown, from its start. Names may count otherwise.

The test system of data set [1] is Collinsella aerofaciens xylulose-5-phosphate/fructose-6-phosphate phosphoketolase (D3), wild type, SEQ ID NO: 2. Put plainly: Kinetics, Hydroxymate based colorimetric assay for FPK activity (F6P). The class given is biochemical. The text has this: Mutagenesis techniques were used to generate engineered phosphoketolases based on one of two template phosphoketolases (the fructose-6-phosphate phosphoketolase from Bifidobacterium adolescentis (strain ATCC 15703 DSM 20083 NCTC 11814 E194a) (“H2”; UniProtKB Accession No. A1A185_BIFAA; SEQ ID NOs: 1 and 3) orthe xylulose-5-phosphate/fructose-6-phosphate phosphoketolase from Collinsella aerofaciens (“D3”; UniProt KB Accession No. A0A174LGR4_9ACTN; SEQ ID NOs: 2 and 4)). Engineered phosphoketolase were generated using rational protein engineering. Structural homology models were constructed for H2 and D3. The substrate docking with Xu5P and F6P were also performed. In total, 2000 variants were designed. […]
(§1) Further biochemical characterization of selected variants was conducted and the FPK activity of these variants were assessed. […] The kinetics parameters measured during biochemical characterization are summarized below in Table 5. […]
The product of FPK is coupled to ferric-hydroxamate complex production via hydroxamate reactions of its product with hydroxylamine and ferric chloride. Ferric-hydroxamate complex production was measured by absorbance at 520 nm. […]
Cell lysate preparation was the same described as above. […] The reaction was incubated at room temperature for 10 minutes and then sent to the plate reader for absorption at 520 nm.

For data set [2], the target named is T1, Bifidobacterium adolescentis fructose-6-phosphate phosphoketolase (H2), wild type, SEQ ID NO: 1 (Bifidobacterium adolescentis, UniProt A1A185).
T1 sequence (A1A185 with tags, fused parts or gaps): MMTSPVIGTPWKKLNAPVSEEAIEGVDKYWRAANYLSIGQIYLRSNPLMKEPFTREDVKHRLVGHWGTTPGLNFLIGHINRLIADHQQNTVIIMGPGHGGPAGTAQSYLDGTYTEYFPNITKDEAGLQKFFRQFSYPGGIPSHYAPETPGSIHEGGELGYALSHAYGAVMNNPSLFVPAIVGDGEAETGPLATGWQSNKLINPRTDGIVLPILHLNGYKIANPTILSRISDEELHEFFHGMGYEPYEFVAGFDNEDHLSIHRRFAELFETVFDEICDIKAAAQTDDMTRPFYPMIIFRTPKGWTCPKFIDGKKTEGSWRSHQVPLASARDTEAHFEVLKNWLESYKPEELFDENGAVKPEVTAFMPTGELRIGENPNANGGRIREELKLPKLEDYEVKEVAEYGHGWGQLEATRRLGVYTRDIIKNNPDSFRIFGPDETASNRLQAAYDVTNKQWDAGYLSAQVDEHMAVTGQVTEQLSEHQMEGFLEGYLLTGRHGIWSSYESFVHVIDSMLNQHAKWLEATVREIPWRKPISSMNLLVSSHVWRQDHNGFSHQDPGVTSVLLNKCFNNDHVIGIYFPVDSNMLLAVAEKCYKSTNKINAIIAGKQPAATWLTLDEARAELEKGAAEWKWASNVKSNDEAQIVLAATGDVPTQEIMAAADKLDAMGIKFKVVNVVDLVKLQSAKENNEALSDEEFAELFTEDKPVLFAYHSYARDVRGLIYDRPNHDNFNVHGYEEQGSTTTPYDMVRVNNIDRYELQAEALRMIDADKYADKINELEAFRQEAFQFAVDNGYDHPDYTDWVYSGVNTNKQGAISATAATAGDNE
The data set is described as above. Type of data set: biochemical.

The target in data set [3] is T1, Bifidobacterium adolescentis fructose-6-phosphate phosphoketolase (H2), wild type, SEQ ID NO: 1. Briefly: Kinetics, E4PDH based colorimetric assay for FPK activity (F6P). Type of data set: biochemical.
The test system of data set [4] is Collinsella aerofaciens xylulose-5-phosphate/fructose-6-phosphate phosphoketolase (D3), wild type, SEQ ID NO: 2. The data set is described as above. The class given is biochemical.
Description: Mutagenesis techniques were used to generate engineered phosphoketolases based on one of two template phosphoketolases (the fructose-6-phosphate phosphoketolase from Bifidobacterium adolescentis (strain ATCC 15703 DSM 20083 NCTC 11814 E194a) (“H2”; UniProtKB Accession No. A1A185_BIFAA; SEQ ID NOs: 1 and 3) orthe xylulose-5-phosphate/fructose-6-phosphate phosphoketolase from Collinsella aerofaciens (“D3”; UniProt KB Accession No. A0A174LGR4_9ACTN; SEQ ID NOs: 2 and 4)). Engineered phosphoketolase were generated using rational protein engineering. Structural homology models were constructed for H2 and D3. The substrate docking with Xu5P and F6P were also performed. In total, 2000 variants were designed. There are 1031 constructs designed based on H2, and 969 based on D3. 1999 constructs were received from DNA synthesis. […]
as §1
The product of FPK is coupled to NADH production via a one-step enzymatic reaction of its product with E4PDH. NADH production overtime was measured by absorbance at 340 nm. […]
5 μL of half diluted cell lysate was added into 45 μL of reaction buffer. […] The reaction was recorded for a 10-min kinetics reading at 340 nm at room temperature.

Substrate in data set [5]: O=P(O)(O)OC[C@H]1OC(O)(CO)[C@@H](O)[C@@H]1O
The data set is described as above. Type of data set: biochemical, Bifidobacterium adolescentis. Conditions: other: F6P. From the text: Mutagenesis techniques were used to generate engineered phosphoketolases based on one of two template phosphoketolases (the fructose-6-phosphate phosphoketolase from Bifidobacterium adolescentis (strain ATCC 15703 DSM 20083 NCTC 11814 E194a) (“H2”; UniProtKB Accession No. A1A185_BIFAA; SEQ ID NOs: 1 and 3) orthe xylulose-5-phosphate/fructose-6-phosphate phosphoketolase from Collinsella aerofaciens (“D3”; UniProt KB Accession No. A0A174LGR4_9ACTN; SEQ ID NOs: 2 and 4)). Engineered phosphoketolase were generated using rational protein engineering. Structural homology models were constructed for H2 and D3. The substrate docking with Xu5P and F6P were also performed. In total, 2000 variants were designed. There are 1031 constructs designed based on H2, and 969 based on D3. 1999 constructs were received from DNA synthesis. The variants were then tested for XPK and/or FPK activity in in vitro primary and secondary screens as described below.
Further biochemical characterization of selected variants was conducted and the FPK activity of these variants were assessed. 12 hits were selected from the secondary screening results of the phosphoketolase library screen for in vitro biochemical characterization. All 12 of the hits selected are variants based on SEQ ID NO: 1. The kinetics parameters measured during biochemical characterization are summarized below in Table 5. The FPK kinetics assay was based on the E4PDH based Colorimetric Assay described herein for the 12 hits and the two controls (SEQ ID NO: 1 and SEQ ID NO: 2).
The product of FPK is coupled to NADH production via a one-step enzymatic reaction of its product with E4PDH. NADH production overtime was measured by absorbance at 340 nm. The reactions are listed below.
5 μL of half diluted cell lysate was added into 45 μL of reaction buffer. The reaction buffer contained an approximate amount of E4PDH enzyme, 1 mM NADH and 5 mM F6P as substrate for primary screening. 2 mM F6P was used for secondary screening. The reaction was recorded for a 10-min kinetics reading at 340 nm at room temperature.

As to `O=P(O)(O)OC[C@H]1OC(O)(CO)[C@@H](O)[C@@H]1O` (stereo partly drawn) [F6P, D-fructose-6-phosphate], the Km is 9.31 mM in data set [1], 1.04 mM in data set [2], 4.89 mM in data set [3] and 27.9 mM in data set [4]. The kcat in data set [1] stood at 19.57 s⁻¹; in data set [2] it was 5.933 s⁻¹; in data set [3], 30.07 s⁻¹; in data set [4], 7.824 s⁻¹.

B1: Bifidobacterium adolescentis fructose-6-phosphate phosphoketolase (H2, SEQ ID NO: 1) variant H239R (Bifidobacterium adolescentis ATCC 15703; H238R) (protein)
chain: T1 sequence (A1A185 with tags, fused parts or gaps) with H239R
B1: in data set [5], the Km was determined as 2.432 mM, the kcat was determined as 57.9 s⁻¹ and the kcat/Km came out at 23800 M⁻¹ s⁻¹.

B2: Bifidobacterium adolescentis fructose-6-phosphate phosphoketolase (H2, SEQ ID NO: 1) variant S504A (Bifidobacterium adolescentis ATCC 15703; S503A) (protein)
chain: T1 sequence (A1A185 with tags, fused parts or gaps) with S504A
For B2, in data set [5], the Km came out at 3.347 mM, the kcat worked out at 26.3 s⁻¹ and the kcat/Km stood at 7850 M⁻¹ s⁻¹.

B3: Bifidobacterium adolescentis fructose-6-phosphate phosphoketolase (H2, SEQ ID NO: 1) variant Q759L (Bifidobacterium adolescentis ATCC 15703; Q758L) (protein)
chain: T1 sequence (A1A185 with tags, fused parts or gaps) with Q759L
B3: in data set [5], the Michaelis-Menten constant (Km) was found to be 3.596 mM, the kcat is 35.6 s⁻¹ and the kcat/Km was found to be 9890 M⁻¹ s⁻¹.

B4: Bifidobacterium adolescentis fructose-6-phosphate phosphoketolase (H2, SEQ ID NO: 1) variant Y804W (Bifidobacterium adolescentis ATCC 15703; Y803W) (protein)
chain: T1 sequence (A1A185 with tags, fused parts or gaps) with Y804W
B4: in data set [5], the Michaelis constant (Km) worked out at 2.86 mM, the kcat is 30.8 s⁻¹ and the kcat/Km was 10800 M⁻¹ s⁻¹.

B5: Bifidobacterium adolescentis fructose-6-phosphate phosphoketolase (H2, SEQ ID NO: 1) variant M483C (Bifidobacterium adolescentis ATCC 15703; M482C) (protein)
chain: T1 sequence (A1A185 with tags, fused parts or gaps) with M483C
On to B5, for which, in data set [5], the Km is recorded as 2.299 mM, the kcat stood at 34 s⁻¹ and the kcat/Km worked out at 14800 M⁻¹ s⁻¹.

B6: Bifidobacterium adolescentis fructose-6-phosphate phosphoketolase (H2, SEQ ID NO: 1) variant Y799I (Bifidobacterium adolescentis ATCC 15703; Y798I) (protein)
chain: T1 sequence (A1A185 with tags, fused parts or gaps) with Y799I
For B6, in data set [5], the Km amounted to 4.53 mM, the kcat came to 33.6 s⁻¹ and the kcat/Km turned out to be 7430 M⁻¹ s⁻¹.

B7: Bifidobacterium adolescentis fructose-6-phosphate phosphoketolase (H2, SEQ ID NO: 1) variant H257P (Bifidobacterium adolescentis ATCC 15703; H256P) (protein)
chain: T1 sequence (A1A185 with tags, fused parts or gaps) with H257P
Take B7: in data set [5], the Km was determined as 2.422 mM, the kcat was 25 s⁻¹ and the kcat/Km is 10300 M⁻¹ s⁻¹.

B8: Bifidobacterium adolescentis fructose-6-phosphate phosphoketolase (H2, SEQ ID NO: 1) variant C567S (Bifidobacterium adolescentis ATCC 15703; C566S) (protein)
chain: T1 sequence (A1A185 with tags, fused parts or gaps) with C567S
As for B8, in data set [5], the Km came out at 3.046 mM, the kcat came to 26.4 s⁻¹ and the kcat/Km came to 8660 M⁻¹ s⁻¹.
